Assay results taken from US7265263B1, “Potato transcription factors, methods of use thereof, and a method for enhancing tuber development” (Iowa State University Research Foundation, Inc., priority 2002, dated 2007).

Experiments:
GAD protein alone = target: T1, GAD protein alone (UniProt P04386 768-881, limits assumed); assay: in vitro translated 35S-labelled proteins, immunoprecipitation with anti-GAD antibodies
T1 construct: Control of the immunoprecipitation
T1 sequence (looked up): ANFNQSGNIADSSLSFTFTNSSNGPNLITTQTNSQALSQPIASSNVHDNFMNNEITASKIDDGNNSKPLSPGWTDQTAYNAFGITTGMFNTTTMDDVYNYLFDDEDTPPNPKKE
Protocol: In vitro binding experiments were performed as described by Ni et al., "PIF3, a Phytochrome-Interacting Factor Necessary for Normal Photoinduced Signal Transduction, is a Novel Basic *Helix*-Loop-Helix Protein," *Cell* 95:657-667 (1998), which is hereby incorporated by reference in its entirety. The full-length sequence for POTH1 was cloned into a pET17b/GAD fusion cassette and transcribed under the control of the T7 promoter. The BEL cDNAs were cloned into pGEM11Z vectors and were transcribed under the control of the T7 promoter. ^35S-methionine labeled bait and prey proteins were synthesized using the TnT in vitro transcription-translation kit (Promega) according to the manufacturer's protocols. Each 50 μl TnT reaction contained 2.0 μg of template plasmid DNA and 20 μmol (20 μCi) of labeled ^35S-methionine. The POTH1:GAD/BEL complex was immunoprecipitated with anti-GAD antibodies (Santa Cruz Biotechnology, Calif.). The proteins from the pellet (one-half the fraction) and for the prey (one-fourth of the reaction volume) were resolved on a 10% SDS-PAGE gel and visualized by autoradiography.

POTH1 [1] = assay: Yeast two-hybrid interaction with POTH1; format: binding, Solanum tuberosum; conditions: nutritional selection and lacZ activation, yeast AH109
POTH1, sequence (as listed by the source): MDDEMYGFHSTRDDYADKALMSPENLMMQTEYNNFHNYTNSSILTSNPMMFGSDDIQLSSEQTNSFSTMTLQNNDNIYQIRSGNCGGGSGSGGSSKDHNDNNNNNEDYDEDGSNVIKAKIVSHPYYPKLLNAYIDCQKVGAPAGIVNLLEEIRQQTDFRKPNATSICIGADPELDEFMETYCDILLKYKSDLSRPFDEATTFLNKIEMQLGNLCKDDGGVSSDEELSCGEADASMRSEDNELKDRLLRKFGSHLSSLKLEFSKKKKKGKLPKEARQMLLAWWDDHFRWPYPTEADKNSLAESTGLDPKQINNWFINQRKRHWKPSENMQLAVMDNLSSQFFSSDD
Excerpt: The Matchmaker two-hybrid system (Clontech, Calif.) was used for the yeast two-hybrid screen. Yeast transformation and plasmid rescue into DH5-α E. coli cells were according to the manufacturer's instructions. Full-length POTH1 was cloned into the pBridge (Clontech, Calif.) vector and used as bait to screen the potato (S. tuberosum ‘Desireé’) stolon cDNA library in pAD-GAL4-2.1 (Stratagene, Calif.). Positive interactions were confirmed by cotransforming yeast strain AH109 with each purified pAD plasmid and pBridge: POTH1 and plating on -leucine/-tryptophan (transformation control) and -leucine/-tryptophan/-histidine/-adenine (selection) nutrient medium. Induction of the AH109 reporter gene, lacZ, was measured with a yeast β-galactosidase assay kit (Pierce Chemicals). β-galactosidase activity (FIG. 9B) was determined from a known density of yeast cells and calculated as 1000×OD420/time of color reaction (minutes)×volume of yeast culture (ml)×OD600.
The StBEL-05 deletion constructs were amplified by PCR, then cloned into the vector, pGAD, in-frame with the GAL4 activation domain. POTH1 deletion constructs were amplified by PCR, and cloned into pBridge (Clontech) in-frame with the GAL4 binding domain. Sequencing of selected cDNAs and constructs was performed at the Iowa State University DNA Facility. For deletion analysis, modified constructs of POTH1 were cloned into the pBridge vector for fusion with the DNA-binding domain of GAL4 (FIG. 10A). For StBEL-05, constructs were cloned into the pGAD vector for fusion with the activating domain of GAL4 (FIG. 10B). Deletion constructs were made from both the amino and carboxy termini. These mutants were then tested for interaction in the yeast two-hybrid system by cotransforming into yeast strain AH109 with the corresponding full-length partner (StBEL-05 in pGAL4 or POTH1 in pBridge). All constructs were sequenced to verify that they were in-frame. Positive interactions were verified for lacZ induction by using a β-galactosidase assay (Pierce Chemical Company). For POTH1, seven deletion constructs were tested (FIG. 10A). For the BEL TFs, a fusion construct of StBEL-05 (653 aa of StBEL-05 sequence) and nine deletion constructs were tested (FIG. 10B).

POTH1 [2] = assay: In vitro binding assay (immunoprecipitation) with POTH1; parameters: species or system Solanum tuberosum; conditions: in vitro transcription/translation, anti-GAD
Protocol: In vitro binding experiments were performed as described by Ni et al., “PIF3, a Phytochrome-Interacting Factor Necessary for Normal Photoinduced Signal Transduction, is a Novel Basic Helix-Loop-Helix Protein,” Cell 95:657-667 (1998), which is hereby incorporated by reference in its entirety. The full-length sequence for POTH1 was cloned into a pET17b/GAD fusion cassette and transcribed under the control of the T7 promoter. […] Each 50 μl TnT reaction contained 2.0 μg of template plasmid DNA and 20 μmol (20 μCi) of labeled ^35S-methionine. The POTH1:GAD/BEL complex was immunoprecipitated with anti-GAD antibodies (Santa Cruz Biotechnology, Calif.). The proteins from the pellet (one-half the fraction) and for the prey (one-fourth of the reaction volume) were resolved on a 10% SDS-PAGE gel and visualized by autoradiography.

B1: StBEL-05 protein from pGEM11Z (in vitro transcription/translation) (other)
chain: MYYQGTSDNTNIQADHQQRHNHGNSNNNNIQTLYLMNPNNYMQGYTTSDTQQQQQLLFLNSSPAASNALCHANIQHAPLQQQHFVGVPLPAVSLHDQINHHGLLQRMWNNQDQSQQVIVPSSTGVSATSCGGITTDLASQLAFQRPIPTPQHRQQQQQQGGLSLSLSPQLQQQISFNNNISSSSPRTNNVTIRGTLDGSSSNMVLGSKYLKAAQELLDEVVNIVGKSIKGDDQKKDNSMNKESMPLASDVNTNSSGGGESSSRQKNEVAVELTTAQRQELQMKKAKLLAMLEEVEQRYRQYHHQMQIIVLSFEQVAGIGSAKSYTQLALHAISKQFRCLKDAIAEQVKATSKSLGEEEGLGGKIEGSRLKFVDHHLRQQRALQQIGMMQPNAWRPQRGLPERAVSVLRAWLFEHFLHPYPKDSDKIMLAKQTGLTRSQVSNWFINARVRLWKPMVEEMYLEEVKNQEQNSTNTSGDNKNKETNISAPNEEKHPIITSSLLQDGITTTQAEISTSTISTSPTAGASLHHAHNFSFLGSFNMDNTTTTVDHIENNAKKQRNDMHKFSPSSILSSVDMEAKARESSNKGFTNPLMAAYAMGDFGRFDPHDQQMTANFHGNNGVSLTLGLPPSENLAMPVSQQNYLSNDLGSRSEMGSHYNRMGYENIDFQSGNKRFPTQLLPDFVTGNLGT
notes: 35S-methionine labelled prey; also called p11Z-5
- binding result (GAD protein alone): no binding
- interaction with POTH1 (POTH1 [1]): showed selective interaction
- pull-down by POTH1 in immunoprecipitation (POTH1 [2]): pulled down
